Here are results for 5 molecules from patent publication US20170101476A1 (Novartis, published 2017).

Assay in all cases: cell-based or functional assay
For assay [1], the target named is T1, Human CXCR2 (human, UniProt P25025 1-360).
T1 sequence: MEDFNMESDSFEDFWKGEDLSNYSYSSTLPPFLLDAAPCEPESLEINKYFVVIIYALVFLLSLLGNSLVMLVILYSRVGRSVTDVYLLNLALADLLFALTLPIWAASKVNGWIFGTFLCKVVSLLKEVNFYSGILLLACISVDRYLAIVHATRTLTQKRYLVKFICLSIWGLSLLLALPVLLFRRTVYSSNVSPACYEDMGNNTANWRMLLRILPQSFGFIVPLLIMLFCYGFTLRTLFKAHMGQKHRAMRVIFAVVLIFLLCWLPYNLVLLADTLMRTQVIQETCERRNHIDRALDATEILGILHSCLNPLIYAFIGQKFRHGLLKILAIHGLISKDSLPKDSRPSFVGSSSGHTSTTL

Another assay addresses T2, Cynomolgus CXCR2 (cynomolgus, UniProt Q28519 3-353 (rhesus entry)).
T2 chain: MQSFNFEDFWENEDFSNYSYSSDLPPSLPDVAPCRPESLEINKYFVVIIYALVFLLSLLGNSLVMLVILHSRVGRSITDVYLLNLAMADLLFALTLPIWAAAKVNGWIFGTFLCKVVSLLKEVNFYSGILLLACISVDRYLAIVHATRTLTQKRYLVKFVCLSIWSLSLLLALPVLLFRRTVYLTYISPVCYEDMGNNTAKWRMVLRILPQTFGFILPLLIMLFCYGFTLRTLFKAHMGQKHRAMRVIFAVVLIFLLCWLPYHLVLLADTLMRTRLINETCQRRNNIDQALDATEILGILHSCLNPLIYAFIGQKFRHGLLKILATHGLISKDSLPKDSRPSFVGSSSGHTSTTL

Assay [2] concerns the target T1, Human CXCR2. The source holds these as a separate data set.

B1: 097A09 (VHH, not shown: small tags and cut ends)
VHH: EVQLVESGGGLVQPGGSLRLSCVASGSIVRINTMGWYRQTPGKQRELVADITSGGNINYIDAVKGRFTISRDNTKNTVYLQMNSLKPEDTAVYYCNAEIVVLVGVWTQRARTGNYWGQGTQVTVSS
Regarding B1, in the assay with Human CXCR2 [1], the “Human Chemotaxis IC50 (GROα)” value amounted to 4.8 nM and the “HumanWBSC IC50 (rhGROα)” value is 11.6 nM. Besides, the “FLIPR IC50, GRO-α induced intracellular calcium release” value in the assay with Cynomolgus CXCR2 stood at 640 nM. Also, in the assay with Human CXCR2 [2], the “FLIPR IC50, GRO-α induced intracellular calcium release” value stood at 39.9 nM; the “[35S]GTPγS % inhibition max, GRO-α” value came to 100%; the “[35S]GTPγS accumulation IC50, GRO-α” value came to 50.3 nM.

B2: 163D02 (VHH, not shown: small tags and cut ends)
VHH: EVQLVESGGGLVQAGGSLRLSCAASGRTFSDYAMGWFRQAPGKEREFVAAITWNGGRVFYTASVKGRFTISRDNAKNTMYLQMNSLKPEDTAVYYCAADKDRRTDYLGHPVAYWGQGTQVTVSS
B2: the “HumanWBSC IC50 (rhGROα)” value with Human CXCR2 [1] amounted to 6.6 nM. Also, in the assay with Cynomolgus CXCR2, the “FLIPR IC50, GRO-α induced intracellular calcium release” value was 37.2 nM. For the same molecule, in the assay with Human CXCR2 [2], the “FLIPR IC50, GRO-α induced intracellular calcium release” value turned out to be 1.91 nM; the “[35S]GTPγS % inhibition max, GRO-α” value is 100%; the “[35S]GTPγS accumulation IC50, GRO-α” value stood at 53.2 nM.

B3: 163E03 (VHH, not shown: small tags and cut ends)
VHH: EVQLVESGGGLVQPGGSLRLSCVASGRIFSSNAMGWFRQAPGKEREFVAAITWRSGGSAYYADSAKGRFTISRDNAKNTVYLQMNSLKPEDTAVYYCAAGGSSWLSFPPDYWGQGTQVTVSS
Take B3: in the assay with Human CXCR2 [1], the “Human Chemotaxis IC50 (GROα)” value was determined as 1.3 nM and the “HumanWBSC IC50 (rhGROα)” value turned out to be 9.4 nM. The “FLIPR IC50, GRO-α induced intracellular calcium release” value in the assay with Cynomolgus CXCR2 is 158 nM. Also, in the assay with Human CXCR2 [2], the “FLIPR IC50, GRO-α induced intracellular calcium release” value amounted to 44.3 nM; the “[35S]GTPγS % inhibition max, GRO-α” value was 100%; the “[35S]GTPγS accumulation IC50, GRO-α” value is 64.7 nM.

B4: 54B12 (VHH, not shown: small tags and cut ends)
VHH: EVQLVESGGGLVQAGGSLTLSCAVSGSTFRINTMGWYRRAPGKQRELVAARDRGGYINYVDSVKGRFTVSRDNAKPTMYLQMNSLKPEDTAVYYCHAGTQDRTGRNFDRWGQGTQVTVSS
Regarding B4, the “HumanWBSC IC50 (rhGROα)” value in the assay with Human CXCR2 [1] was 19.7 nM. Also, the “FLIPR IC50, GRO-α induced intracellular calcium release” value with Cynomolgus CXCR2 was found to be 4080 nM. Also, in the assay with Human CXCR2 [2], the “FLIPR IC50, GRO-α induced intracellular calcium release” value worked out at 153 nM; the “[35S]GTPγS % inhibition max, GRO-α” value is 71.8%; the “[35S]GTPγS accumulation IC50, GRO-α” value stood at 15.4 nM.

B5: 2B2 (VHH, not shown: small tags and cut ends)
VHH: EVQLVESGGELVQPGGSLRLSCAASGSILTINAMGWYRQAPGKQRELVVRRTRGGSTTYQDSVKGRFTISADIAKKTMYLQMNSLKPEDTAVYYCMLDDRGGVYWGQGTQVTVSS
As for B5, in the assay with Human CXCR2 [1], the “Human Chemotaxis IC50 (GROα)” value was found to be 50 nM and the “HumanWBSC IC50 (rhGROα)” value was determined as 29.5 nM. For the same molecule, the “FLIPR IC50, GRO-α induced intracellular calcium release” value in the assay with Cynomolgus CXCR2 is 3850 nM. In addition, in the assay with Human CXCR2 [2], the “FLIPR IC50, GRO-α induced intracellular calcium release” value was 441 nM; the “[35S]GTPγS % inhibition max, GRO-α” value stood at 71.3%; the “[35S]GTPγS accumulation IC50, GRO-α” value was found to be 103 nM.
